Measurements as given in US7799901B2, “Modulators of the function of FAS receptors and other proteins” (Yeda Research and Development Co. Ltd., priority 1995, dated 2010).

T1: intracellular domain of FAS-R (Homo sapiens, UniProt P25445)
T1 construct: expressed in transfected cells; host or cells: HeLa HtTA-1
T1 sequence (P25445 26-335): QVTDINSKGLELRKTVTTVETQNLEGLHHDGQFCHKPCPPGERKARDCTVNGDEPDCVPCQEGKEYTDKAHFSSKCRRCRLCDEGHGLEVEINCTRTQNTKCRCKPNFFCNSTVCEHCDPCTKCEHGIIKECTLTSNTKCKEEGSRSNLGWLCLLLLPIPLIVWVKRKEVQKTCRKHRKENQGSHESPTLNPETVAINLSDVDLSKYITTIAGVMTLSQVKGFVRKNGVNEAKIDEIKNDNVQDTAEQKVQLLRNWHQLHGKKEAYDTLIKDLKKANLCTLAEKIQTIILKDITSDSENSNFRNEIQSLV

T2: FAS-R-p55-R chimera (p55-FAS) (Homo sapiens, UniProt P19438+P25445)
T2 construct: transmembrane and intracellular domain of FAS-R (amino acids 153-319); expressed in transfected cells; host or cells: HeLa HtTA-1
T2 sequence (P19438+P25445 with tags, fused parts or gaps): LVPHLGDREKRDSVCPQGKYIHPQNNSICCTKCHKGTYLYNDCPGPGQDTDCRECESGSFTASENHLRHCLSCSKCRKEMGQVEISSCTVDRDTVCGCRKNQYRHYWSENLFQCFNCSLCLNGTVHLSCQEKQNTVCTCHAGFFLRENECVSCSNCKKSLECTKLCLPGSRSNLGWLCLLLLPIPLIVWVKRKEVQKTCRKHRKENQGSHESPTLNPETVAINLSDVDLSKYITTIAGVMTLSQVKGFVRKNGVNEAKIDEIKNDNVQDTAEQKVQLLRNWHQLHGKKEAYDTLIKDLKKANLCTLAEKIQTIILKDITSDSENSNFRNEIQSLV


What was measured:
[1] = target: CED3/ICE homology region in MACHα1 (Homo sapiens, UniProt Q14790); details: 5 mM; bacterial extracts; listed as iodacetic acid
Sequence of CED3/ICE homology region in MACHα1 (Q14790 217-479): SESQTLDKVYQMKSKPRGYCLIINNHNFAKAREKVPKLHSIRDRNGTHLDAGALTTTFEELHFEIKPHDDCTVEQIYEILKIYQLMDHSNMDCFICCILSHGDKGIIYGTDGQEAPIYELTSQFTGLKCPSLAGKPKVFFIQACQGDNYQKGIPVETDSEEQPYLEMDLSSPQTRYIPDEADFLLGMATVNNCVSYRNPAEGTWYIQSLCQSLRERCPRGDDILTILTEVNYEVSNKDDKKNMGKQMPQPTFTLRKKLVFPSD

[2] = system: GST-Fas-IC fusion protein; assay: In vitro binding to GST-Fas-IC on glutathione beads; parameters: species or system human or mouse; details: [35S]-labeled protein from HeLa extracts; SDS-PAGE, autoradiography
Method: Glutathione S-transferase (GST) fusions with the wild type or a mutated Fas-IC were produced and adsorbed to glutathione-agarose beads; see Boldin et al, 1995; Ausubel et al, 1994; Frangioni and Neel, 1993). Binding of metabolically-labeled FLAG-MORT-1 fusion protein to GST-Fas-IC was assessed by incubating the beads for 2 h at 4° C. with extracts of HeLa cells, metabolically labeled with [^35S]methionine (60 μCi/ml), that express FLAG-MORT-1. The extracts were prepared in a buffer containing 50 mM Tris-HCl, pH 7.5, 150 mM NaCl, 0.1% NP-40; 1 mM dithioteitol, 1 mM EDTA, 1 mM phenylmethylsulfonyl fluoride, 20 μg/ml Aprotonin, […] Leupeptin, 10 mM-sodium fluoride and 0.1 mM sodium vanadate (1 ml per 5×10^5 cells).
Expression of MORT-1 molecules fused at their N terminus with the. FLAG octapeptide (FLAG-MORT-1) yielded in HeLa cells proteins of four distinct sizes—about […], 28, 32, and 34 kD. […] Thus, the in vitro interaction was evaluated by assessing, by autoradiography following SDS-PAGE, the binding of [35] metabolically labeled MORT-1, produced in transfected HeLa cells as a fusion with the FLAG octapeptide (FLAG-MORT-1), to GST, GST fusion with the human or mouse Fas-IC (GST-huFas-IC, GST-mFas-IC) or to GST fusion with Fas-IC containing a Ile to Ala replacement mutation at position 225.

[3] = target: T1, intracellular domain of FAS-R; assay: Cross immunoprecipitation with co-expressed FAS-R in HeLa cells; format: binding
Method: (§1) MORT-1, N-linked to the FLAG octapeptide, (FLAG-MORT-1; Eastman Kodak, New Haven, Conn., USA), Fas-IC, FAS-R, p55-R, a chimera comprised of the extracellular domain of p55-R (amino acids 1-168) fused to the transmembrane and intracellular domain of FAS-R (amino acids 153-319), and the luciferase cDNA which serves as a control, were expressed in HeLa cells. Expression was carried out using a tetracycline-controlled expression vector, in a HeLa cell clone (HtTA-1) that expresses a tetracycline-controlled transactivator (Gossen and Bujard, 1992; see also Boldin et al, 1995). Metabolic labeling with [^35S]methionine and [^35S] cysteine (DUPONT, Wilmington, Del., USA and Amersham, Buckinghamshire, England) was performed 18 hours after transfection, by a further 4 h incubation at 37° C. in Dulbecco's modified Eagle's medium lacking methionine and cysteine, but supplemented with 2% dialyzed fetal calf serum. The cells were then lysed in RIPA buffer (10 mM Tris-HCl, pH 7.5, 150 mM NaCl, 1 NP-40, 1% deoxycholate, 0.1% SDS and 1 mM EDTA) and the lysate was precleared by incubation with irrelevant rabbit antiserum (3 μl/ml) and Protein G Sepharose beads (Pharmacia, Uppsala, Sweden; 60 μl/ml). […]

[4] = target: T2, FAS-R-p55-R chimera (p55-FAS); assay: Cross immunoprecipitation with co-expressed p55-FAS chimera in HeLa cells; format: binding
Method: as §1

in vitro binding to GST-Fas-IC [2] | binding to intracellular domain of FAS-R when co-expressed in HeLa cells [3] | binding to intracellular domain of FAS-R-p55-R chimera when co-expressed in HeLa cells [4] | Molecule | effect on cleavage of Ac-DEVD-AMC by the MACHα1 CED3/ICE homology region [1]
 |  |  | O=C(O)CI [iodoacetic acid] | blocked
showed ability to bind | capable of binding | capable of binding | FLAG-MORT-1: MORT-1, N-linked to the FLAG octapeptide (protein, left off: small tags and cut ends, MORT-1, N-linked to the FLAG octapeptide) VNQAPECRFGGGILGPLGKRRDLARASEPRTEGARRAGPQPRPLADPAMDPFLVLLHSVSSSLSSSELTELKFLCLGRVVKRKLERVQSGLDLFSMLLEQNDLEPGHTELLRELLASLRRHDLLRRVDDFEAGAAAGAAPGEEDLCAAFNVICDNVGKDWRRLARQLKVSDTKIDSIEDRYPRNLTERVRESLRIWKNTEKENATVAHLVGALRSCQMNLVADLVQEVQQARDLQNRSGAMSPMSWNSDASTSEAS | 
